This assay has as its target PlMYB73-nLUC (Paeonia lactiflora).

As for cLUC-PlMYB70 (natural protein), the Dual-LUC reporter in N. benthamiana leaves: activation of PlTPS1pro (LUC/REN) by PlMYB73 together with PlMYB70, against PlMYB70 alone amounted to 3.45 fold.

Source of the values: publication PMC12282130.
